In PMC8160069, “Ethacrynic acid targets GSTM1 to ameliorate obesity by promoting browning of white adipocytes” (Protein & Cell, 2020):

Target: the molecule itself
Test: crystal structure; co-crystal structure of celastrol with mouse GSTP1

B1: mouse GSTP1 (enzyme, UniProt P19157 1-210, looked up)
chain: MPPYTIVYFPVRGRCEAMRMLLADQGQSWKEEVVTIDTWMQGLLKPTCLYGQLPKFEDGDLTLYQSNAILRHLGRSLGLYGKNQREAAQMDMVNDGVEDLRGKYVTLIYTNYENGKNDYVKALPGHLKPFETLLSQNQGGKAFIVGDQISFADYNLLDLLLIHQVLAPGCLDNFPLLSAYVARLSARPKIKAFLSSPEHVNRPINGNGKQ
notes: GSTP1 (glutathione S-transferase pi 1), mouse; co-crystallised with celastrol; also called GST pi
binding result: binds
